This note sets out measurements from patent US20250304927A1, “PRO-PEPTIDE VARIANTS FOR MODULATING ACTIVITY OF TRANSGLUTAMINASES” (CURIE CO. INC., priority 2022, published 2025).

For one experiment, the target named is T1, thermostable variant of Streptomyces mobaraensis transglutaminase (Streptomyces mobaraensis, UniProt P81453 79-407).
T1 sequence: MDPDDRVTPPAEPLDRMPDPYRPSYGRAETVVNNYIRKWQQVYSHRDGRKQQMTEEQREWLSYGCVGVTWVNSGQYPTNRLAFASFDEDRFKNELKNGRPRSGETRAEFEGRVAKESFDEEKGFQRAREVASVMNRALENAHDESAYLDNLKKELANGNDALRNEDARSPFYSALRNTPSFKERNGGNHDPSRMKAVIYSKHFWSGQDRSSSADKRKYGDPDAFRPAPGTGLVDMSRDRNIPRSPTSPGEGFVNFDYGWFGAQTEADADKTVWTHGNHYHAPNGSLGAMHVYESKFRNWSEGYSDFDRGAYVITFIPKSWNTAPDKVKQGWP
As to the kind of experiment: cell-based or functional assay.
As to MDNGAGEETKSYAETYR [pro-peptide truncation variant ΔL18-P46], the “Improvement in pH responsiveness of inhibitory peptide relative to WT” value was greater than 5 fold.

With MDNGAGEETKSYAETYRLTADDVAN [pro-peptide truncation variant ΔI26-P46], the “Improvement in pH responsiveness of inhibitory peptide relative to WT” value is greater than 1.2 fold.

As to MDNGAGEGTKSYAETYRLTADDVANINALNESAPAASSAGPSFRAP [pro-peptide variant E8G], the “Improvement in pH responsiveness of inhibitory peptide relative to WT” value was greater than 1.2 fold.

As for MDNGAGEETKSYANTYRLTADDVANINALNESAPAASSAGPSFRAP [pro-peptide variant E14N], the “Improvement in pH responsiveness of inhibitory peptide relative to WT” value was greater than 5 fold.

MDNGAGEETKDYAETYRLTADDVANINALNESAPAASSAGPSFRAP [pro-peptide variant S11D]: the “Improvement in pH responsiveness of inhibitory peptide relative to WT” value was greater than 1.2 fold.

In the case of MDNGAGEETKSVAETYRLTADDVANINALNESAPAASSAGPSFRAP [pro-peptide variant Y12V], the “Improvement in pH responsiveness of inhibitory peptide relative to WT” value was greater than 1.2 fold.

On to MDNGAGEYTKSYAETYRLTADDVANINALNESAPAASSAGPSFRAP [pro-peptide variant E8Y], for which the “Improvement in pH responsiveness of inhibitory peptide relative to WT” value is greater than 1.2 fold.

Regarding MDNGAGEETKSGAETYRLTADDVANINALNESAPAASSAGPSFRAP [pro-peptide variant Y12G], the “Improvement in pH responsiveness of inhibitory peptide relative to WT” value is greater than 1.2 fold.

For MDNGAGEETGSYAETYRLTADDVANINALNESAPAASSAGPSFRAP [pro-peptide variant K10G], the “Improvement in pH responsiveness of inhibitory peptide relative to WT” value is greater than 5 fold.

MDNGAGEETKLYAETYRLTADDVANINALNESAPAASSAGPSFRAP [pro-peptide variant S11L]: the “Improvement in pH responsiveness of inhibitory peptide relative to WT” value is greater than 1.2 fold.

Regarding MDNGAGEETKKYAETYRLTADDVANINALNESAPAASSAGPSFRAP [pro-peptide variant S11K], the “Improvement in pH responsiveness of inhibitory peptide relative to WT” value is greater than 1.2 fold.

Turning to MDNGAGEETKSTAETYRLTADDVANINALNESAPAASSAGPSFRAP [pro-peptide variant Y12T], the “Improvement in pH responsiveness of inhibitory peptide relative to WT” value is greater than 1.2 fold.

In the case of MDNGAGEETKSLAETYRLTADDVANINALNESAPAASSAGPSFRAP [pro-peptide variant Y12L], the “Improvement in pH responsiveness of inhibitory peptide relative to WT” value was greater than 1.2 fold.

Consider MDNGAGGETKSYAETYRLTADDVANINALNESAPAASSAGPSFRAP [pro-peptide variant E7G], for which the “Improvement in pH responsiveness of inhibitory peptide relative to WT” value is greater than 5 fold.

Take MDNGAGEETDSYAETYRLTADDVANINALNESAPAASSAGPSFRAP [pro-peptide variant K10D]: the “Improvement in pH responsiveness of inhibitory peptide relative to WT” value is greater than 1.2 fold.

In the case of MDNGAGEETKSYARTYRLTADDVANINALNESAPAASSAGPSFRAP [pro-peptide variant E14R], the “Improvement in pH responsiveness of inhibitory peptide relative to WT” value is greater than 1.2 fold.

Take MDNGAGEETKSYAGTYRLTADDVANINALNESAPAASSAGPSFRAP [pro-peptide variant E14G]: the “Improvement in pH responsiveness of inhibitory peptide relative to WT” value was greater than 5 fold.

For the molecule MDNGAGEEQKSYAETYRLTADDVANINALNESAPAASSAGPSFRAP [pro-peptide variant T9Q], the “Improvement in pH responsiveness of inhibitory peptide relative to WT” value was greater than 1.2 fold.

For the molecule MDNGAGEETRSYAETYRLTADDVANINALNESAPAASSAGPSFRAP [pro-peptide variant K10R], the “Improvement in pH responsiveness of inhibitory peptide relative to WT” value was greater than 1.2 fold.

Take MDNGAGEETKSNAETYRLTADDVANINALNESAPAASSAGPSFRAP [pro-peptide variant Y12N]: the “Improvement in pH responsiveness of inhibitory peptide relative to WT” value was greater than 1.2 fold.

Regarding MDNGAGEETKS [pro-peptide truncation variant ΔY12-P46], the “Improvement in pH responsiveness of inhibitory peptide relative to WT” value is greater than 1.2 fold.

The target in a further experiment is T1, thermostable variant of Streptomyces …. As to the kind of experiment: cell-based or functional assay. This is another data set of the same source.
Take MDNGAGEETKSYAETYR [pro-peptide truncation variant ΔL18-P46]: the “Reduction in binding affinity of inhibitory peptide relative to WT” value was greater than 1.2 fold.

MDNGAGEETKSYAETYRLTADDVAN [pro-peptide truncation variant ΔI26-P46]: the “Reduction in binding affinity of inhibitory peptide relative to WT” value was greater than 1.2 fold.

For the molecule MDNGAGEGTKSYAETYRLTADDVANINALNESAPAASSAGPSFRAP [pro-peptide variant E8G], the “Reduction in binding affinity of inhibitory peptide relative to WT” value was greater than 1.2 fold.

On to MDNGAGEETKSYAETYRLTADDVPNINALNESAPAASSAGPSFRAP [pro-peptide variant A24P], for which the “Reduction in binding affinity of inhibitory peptide relative to WT” value was greater than 5 fold.

As for MDNGAGEETKSYAETYRLTADDVANINALNESAPAASDAGPSFRAP [pro-peptide variant S38D], the “Reduction in binding affinity of inhibitory peptide relative to WT” value is greater than 1.2 fold.

MDNGAGEETKSYANTYRLTADDVANINALNESAPAASSAGPSFRAP [pro-peptide variant E14N]: the “Reduction in binding affinity of inhibitory peptide relative to WT” value was greater than 1.2 fold.

On to MDNGAGEETKDYAETYRLTADDVANINALNESAPAASSAGPSFRAP [pro-peptide variant S11D], for which the “Reduction in binding affinity of inhibitory peptide relative to WT” value is greater than 1.2 fold.

Take MDNGAGEETKSYAATYRLTADDVANINALNESAPAASSAGPSFRAP [pro-peptide variant E14A]: the “Reduction in binding affinity of inhibitory peptide relative to WT” value is greater than 1.2 fold.

Take MDNGAGEETKSVAETYRLTADDVANINALNESAPAASSAGPSFRAP [pro-peptide variant Y12V]: the “Reduction in binding affinity of inhibitory peptide relative to WT” value is greater than 1.2 fold.

For the molecule MDNGAGEETKSYAETYRLTADPVANINALNESAPAASSAGPSFRAP [pro-peptide variant D22P], the “Reduction in binding affinity of inhibitory peptide relative to WT” value was greater than 1.2 fold.

For the molecule MDNGAGEYTKSYAETYRLTADDVANINALNESAPAASSAGPSFRAP [pro-peptide variant E8Y], the “Reduction in binding affinity of inhibitory peptide relative to WT” value was greater than 1.2 fold.

In the case of MDNGAGEETKSYAETYRSTADDVANINALNESAPAASSAGPSFRAP [pro-peptide variant L18S], the “Reduction in binding affinity of inhibitory peptide relative to WT” value is greater than 1.2 fold.

Regarding MDNGAGEETKSYADTYRLTADDVANINALNESAPAASSAGPSFRAP [pro-peptide variant E14D], the “Reduction in binding affinity of inhibitory peptide relative to WT” value is greater than 1.2 fold.

With MDNGAGEETKSSAETYRLTADDVANINALNESAPAASSAGPSFRAP [pro-peptide variant Y12S], the “Reduction in binding affinity of inhibitory peptide relative to WT” value was greater than 5 fold.

MDNGAGEETKSGAETYRLTADDVANINALNESAPAASSAGPSFRAP [pro-peptide variant Y12G]: the “Reduction in binding affinity of inhibitory peptide relative to WT” value is greater than 1.2 fold.

MDNGAGEETKSYAHTYRLTADDVANINALNESAPAASSAGPSFRAP [pro-peptide variant E14H]: the “Reduction in binding affinity of inhibitory peptide relative to WT” value is greater than 1.2 fold.

With MDNGAGEETKSPAETYRLTADDVANINALNESAPAASSAGPSFRAP [pro-peptide variant Y12P], the “Reduction in binding affinity of inhibitory peptide relative to WT” value was greater than 1.2 fold.

For MDNGAGEETGSYAETYRLTADDVANINALNESAPAASSAGPSFRAP [pro-peptide variant K10G], the “Reduction in binding affinity of inhibitory peptide relative to WT” value was greater than 1.2 fold.

As for MDNGAGEETKSYAETYRLTADDVENINALNESAPAASSAGPSFRAP [pro-peptide variant A24E], the “Reduction in binding affinity of inhibitory peptide relative to WT” value was greater than 1.2 fold.

Turning to MDNGAGEETKSYAETYRLTADDVANENALNESAPAASSAGPSFRAP [pro-peptide variant I26E], the “Reduction in binding affinity of inhibitory peptide relative to WT” value was greater than 1.2 fold.

Turning to MDNGAGEETKLYAETYRLTADDVANINALNESAPAASSAGPSFRAP [pro-peptide variant S11L], the “Reduction in binding affinity of inhibitory peptide relative to WT” value was greater than 1.2 fold.

In the case of MDNGAGEETKKYAETYRLTADDVANINALNESAPAASSAGPSFRAP [pro-peptide variant S11K], the “Reduction in binding affinity of inhibitory peptide relative to WT” value is greater than 1.2 fold.

For the molecule MDNGAGEETKSTAETYRLTADDVANINALNESAPAASSAGPSFRAP [pro-peptide variant Y12T], the “Reduction in binding affinity of inhibitory peptide relative to WT” value is greater than 1.2 fold.

With MDNGAGEETKSLAETYRLTADDVANINALNESAPAASSAGPSFRAP [pro-peptide variant Y12L], the “Reduction in binding affinity of inhibitory peptide relative to WT” value is greater than 1.2 fold.

For the molecule MDNGAGGETKSYAETYRLTADDVANINALNESAPAASSAGPSFRAP [pro-peptide variant E7G], the “Reduction in binding affinity of inhibitory peptide relative to WT” value is greater than 1.2 fold.

Regarding MDNGAGEETKSYAETYRLTADQVANINALNESAPAASSAGPSFRAP [pro-peptide variant D22Q], the “Reduction in binding affinity of inhibitory peptide relative to WT” value is greater than 1.2 fold.

In the case of MDNGAGEETKSYAETYRLTADDVANANALNESAPAASSAGPSFRAP [pro-peptide variant I26A], the “Reduction in binding affinity of inhibitory peptide relative to WT” value is greater than 1.2 fold.

With MDNGAGEETKSYAETYRLTADDVANINALNESAPAASPAGPSFRAP [pro-peptide variant S38P], the “Reduction in binding affinity of inhibitory peptide relative to WT” value was greater than 1.2 fold.

On to MDNGAGEETDSYAETYRLTADDVANINALNESAPAASSAGPSFRAP [pro-peptide variant K10D], for which the “Reduction in binding affinity of inhibitory peptide relative to WT” value is greater than 1.2 fold.

Take MDNGAGEETKSYAETYRETADDVANINALNESAPAASSAGPSFRAP [pro-peptide variant L18E]: the “Reduction in binding affinity of inhibitory peptide relative to WT” value was greater than 1.2 fold.

For MDNGAGEETKSYARTYRLTADDVANINALNESAPAASSAGPSFRAP [pro-peptide variant E14R], the “Reduction in binding affinity of inhibitory peptide relative to WT” value is greater than 1.2 fold.

As to MDNGAGEETKSYAGTYRLTADDVANINALNESAPAASSAGPSFRAP [pro-peptide variant E14G], the “Reduction in binding affinity of inhibitory peptide relative to WT” value is greater than 1.2 fold.

Turning to MDNGAGEETKSYAETYRLTADRVANINALNESAPAASSAGPSFRAP [pro-peptide variant D22R], the “Reduction in binding affinity of inhibitory peptide relative to WT” value was greater than 1.2 fold.

Consider MDNGAGEEQKSYAETYRLTADDVANINALNESAPAASSAGPSFRAP [pro-peptide variant T9Q], for which the “Reduction in binding affinity of inhibitory peptide relative to WT” value is greater than 1.2 fold.

For MDNGAGEETRSYAETYRLTADDVANINALNESAPAASSAGPSFRAP [pro-peptide variant K10R], the “Reduction in binding affinity of inhibitory peptide relative to WT” value is greater than 1.2 fold.

With MDNGAGEETKSYAETYRLTADYVANINALNESAPAASSAGPSFRAP [pro-peptide variant D22Y], the “Reduction in binding affinity of inhibitory peptide relative to WT” value was greater than 1.2 fold.

Take MDNGAGEETKSYACTYRLTADDVANINALNESAPAASSAGPSFRAP [pro-peptide variant E14C]: the “Reduction in binding affinity of inhibitory peptide relative to WT” value was greater than 1.2 fold.

As to MDNGAGEETKSNAETYRLTADDVANINALNESAPAASSAGPSFRAP [pro-peptide variant Y12N], the “Reduction in binding affinity of inhibitory peptide relative to WT” value was greater than 1.2 fold.

For MDNGAGEETKSYAETYRLTADDVANINALNESAPAASYAGPSFRAP [pro-peptide variant S38Y], the “Reduction in binding affinity of inhibitory peptide relative to WT” value was greater than 1.2 fold.

Take MDNGAGEETKS [pro-peptide truncation variant ΔY12-P46]: the “Reduction in binding affinity of inhibitory peptide relative to WT” value is greater than 1.2 fold.

For MDNGAGEETKSYAETYRLTAD [pro-peptide truncation variant ΔD22-P46], the “Reduction in binding affinity of inhibitory peptide relative to WT” value was greater than 1.2 fold.
